Results on five molecules are retold here after paper PMC8698469, “A Combined Spectroscopic and In Silico Approach to Evaluate the Interaction of Human Frataxin with Mitochondrial Superoxide Dismutase” (Biomedicines, 2021).

Assay [1] deals with T1, human mitochondrial superoxide dismutase (SOD2), His-tag recombinant protein (human, UniProt P04179 25-222).
T1 construct: Trp residues are printed as W78, W123, W125, W161, W181, W186; also called Mn-SOD; (SOD2)4; source: bought: Technical Novusbio (His-tag recombinant protein)
T1 sequence: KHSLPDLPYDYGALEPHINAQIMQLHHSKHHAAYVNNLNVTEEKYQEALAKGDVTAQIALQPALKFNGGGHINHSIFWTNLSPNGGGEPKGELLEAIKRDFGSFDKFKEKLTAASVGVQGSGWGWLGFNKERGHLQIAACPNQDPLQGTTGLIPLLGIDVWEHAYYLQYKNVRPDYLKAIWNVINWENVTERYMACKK
The assay is described as follows: tryptophan fluorescence quenching (mixture against the sum of the single spectra); both in solution; FXN 1.4 uM, SOD2 1.9 uM (FXN:(SOD2)4 1:0.34), 288 K, mix of 20 mM TRIS-HCl pH 8 and 25 mM HEPES pH 7.0, 50 mM KCl, under nitrogen. The note with it: both partners purified.

The target of assay [2] is T1, human mitochondrial superoxide …. The assay is described as follows: SDSL-EPR (EPR spectra of spin-labelled protein, fitted rotational correlation time); both in solution; 10 uM spin-labelled FXN mutant without or with 40 uM SOD2 (FXN:(SOD2)4 1:1; also 1:0.5), room temperature, 18 uL SOD buffer (20 mM Tris HCl pH 8, 20% v/v glycerol) or SOD2 stock with 2 uL FXN stock, under nitrogen flow. The settings on record: both partners purified.

B1: human wild-type mature frataxin, FXN(90-210) (domain or fragment, UniProt Q16595 90-210, looked up)
chain: LDETTYERLAEETLDSLAEFFEDLADKPYTFEDYDVSFGSGVLTVKLGGDLGTYVINKQTPNKQIWLSSPSSGPKRYDWTGKNWVYSHDGVSLHELLAAELTKALKTKLDLSSLAYSGKDA
notes: human frataxin, residues 90-210 of the 210 amino acid precursor, from plasmid pET-9b/FXN(90-210); also called WT FXN; source: E. coli BL21 (DE3), purified (DEAE Sepharose ion exchange, SEC on Superdex 200)
Turning to B1, the “decrease in fluorescence quenching relative to the sum of the individual spectra” value in assay [1] was found to be 17%.

B2: human FXN(90-210) A114C, spin-labelled with M-TETPO (domain or fragment, UniProt Q16595 90-210, looked up)
chain: LDETTYERLAEETLDSLAEFFEDLCDKPYTFEDYDVSFGSGVLTVKLGGDLGTYVINKQTPNKQIWLSSPSSGPKRYDWTGKNWVYSHDGVSLHELLAAELTKALKTKLDLSSLAYSGKDA
modifications: M-TETPO nitroxide spin label on cysteine 114
notes: human frataxin, residues 90-210, native residue mutated to cysteine for spin labelling; source: E. coli BL21 (DE3), purified (DEAE Sepharose ion exchange, SEC), labelled with M-TETPO
On to B2, for which the “ΔτC (τC^+SOD − τC^−SOD)” value in assay [2] was determined as 0.44 ns.

B3: human FXN(90-210) H183C, spin-labelled with M-TETPO (domain or fragment, UniProt Q16595 90-210, looked up)
chain: LDETTYERLAEETLDSLAEFFEDLADKPYTFEDYDVSFGSGVLTVKLGGDLGTYVINKQTPNKQIWLSSPSSGPKRYDWTGKNWVYSHDGVSLCELLAAELTKALKTKLDLSSLAYSGKDA
modifications: M-TETPO nitroxide spin label on cysteine 183
notes: as for B2
As to B3, the “ΔτC (τC^+SOD − τC^−SOD)” value in assay [2] came out at 0.56 ns.

B4: human FXN(90-210) A193C, spin-labelled with M-TETPO (domain or fragment, UniProt Q16595 90-210, looked up)
chain: LDETTYERLAEETLDSLAEFFEDLADKPYTFEDYDVSFGSGVLTVKLGGDLGTYVINKQTPNKQIWLSSPSSGPKRYDWTGKNWVYSHDGVSLHELLAAELTKCLKTKLDLSSLAYSGKDA
modifications: M-TETPO nitroxide spin label on cysteine 193
notes: as for B2
With B4, the “ΔτC (τC^+SOD − τC^−SOD)” value in assay [2] worked out at 0.41 ns.

B5: human FXN(90-210) T133C, spin-labelled with M-TETPO (domain or fragment, UniProt Q16595 90-210, looked up)
chain: LDETTYERLAEETLDSLAEFFEDLADKPYTFEDYDVSFGSGVLCVKLGGDLGTYVINKQTPNKQIWLSSPSSGPKRYDWTGKNWVYSHDGVSLHELLAAELTKALKTKLDLSSLAYSGKDA
modifications: M-TETPO nitroxide spin label on cysteine 133
notes: as for B2
Regarding B5, the “ΔτC (τC^+SOD − τC^−SOD)” value in assay [2] amounted to 0.4 ns.
